# Test: yeast display, Sf9 membrane polyspecificity reagent, FACS + sequencing; frameworks hold sequencing errors
# Procedure, shortened: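 Using colony PCR, genes from sorted yeast display clones were amplified, then sequenced on MiSeq at 2 × 250 and filtered by CDR length. The clones had been stained with 10% biotinylated, detergent-solubilized Sf9 membrane reagent for 1 hour at 4 °C and sorted by FACS into low and high (top ~1%) gates on anti-HA and streptavidin fluorescence. Polyreactivity labels come from the gate of origin.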
row,Sequence,polyreactivity (PSR sort gate)
1,QVQLVESGGGLVQAGGSLRLSCAASGFTLDRYAMGWYRQAPGKERELVAAITQSGVSTYYADSVKGRFTISRDNAKNTVYLQMNSLKPEDTAVYYCNALLRRTDYRYTWGYGYWGQGTQVTVSS,high polyreactivity
2,QVQLVESGGGLVQAGGSLRLSCAASGFTLEYNAMGWYRQAPGKERELVAAIDGDGTTYYADSVKGRFTISRDNAKNTVYLQMNSLKPEDTAVYYCNTRTTPYYAQGITRIEYDYWGQGTQVTVSS,low polyreactivity
3,QVQLVESGGGLVQAGGSLRLSCAASGFTLFWNDMGWYRQAPGKERELVAAITSGDDTYADSVKGRFTISRDNAKNTVYLQMNSLKPEDTAVYYCNKDDPLRNVAQVILYEFYYWGQGTQVTVSS,low polyreactivity
4,QVQLVESGGGLVQAGGSLRLSCAASGFTLGRYAMGWYRQAPGKERELVAAISSGGRTYYADSVKGRFTISRDNAKNTVYLQMNSLKPEDTAVYYCAADPRYISYDYWGQGTQVTVSS,low polyreactivity
5,QVQLVESGGGLVQAGGSLRLSCAASGFTLGSNAMGWYRQAPGKERELVAAISKSGGSTYYADSVKGRFTISRDNAKNTVYLQMNSLKPEDTAVYYCAARYLYQGYRYDYWGQGTQVTVSS,high polyreactivity
6,QVQLVESGGGLVQAGGSLRLSCAASGFTLPVYAMGWYRQAPGKERELVARITWSAGRTYYADSVKGRFTISRDNAKNTGYLQMNSLKPEDTAVYYCAAGPVSQHHSPRPHDYWGQGTQVTVSS,high polyreactivity
7,QVQLVESGGGLVQAGGSLRLSCAASGFTLPVYGMGWYRQAPGQERELVAAISSRGGNTYYADSVKGRFTISRDNAKNTVYLQMNSLKPEDTAVYYCAAGGITYTGDDYWGQGTQVTVSS,high polyreactivity
8,QVQLVESGGGLVQAGGSLRLSCAASGFTLQRYAMGWYRQAPGKEREFVAVITRSGGSTYYADSVKGRFTISRDNAKNSVYLQMNSLKPEDTAVYDCAKREFPTTRNRGRYDYWGQGTQVTVSS,high polyreactivity
9,QVQLVESGGGLVQAGGSLRLSCAASGFTLSYYAMGWYRQAPGKERELVASISAIGGITYYADSVKGRFTISRDNAKNTVYLQMNSLKPEDTAVYYCARQGRRYRRFDSWGQGTQVTVSS,high polyreactivity
10,QVQLVESGGGLVQAGGSLRLSCAASGFTLTLYAMGCYRQSPGKERELVAAISGNGGRTYYADSVKGRFTISRDNAKNTVYLQMNSLKPEDTAVYYCAARYTRSPSDYSTRKFGYGYWGQGTQVTVSS,high polyreactivity
11,QVQLVESGGGLVQAGGSLRLSCAASGFTLTLYAMGWYRQAPGKERELVARITSSGGITYYADSVKGRFTISRDNAKNTVYLQMISLKPEDTAVYYCAKEALIGPSRIILGEMGYWGQGTQVTVSS,low polyreactivity
12,QVQLVESGGGLVQAGGSLRLSCAASGFTLTRNAMGWYRQAPGKERELVAAISWSGGTTYYADSVKGRFTISRDNAKNTVYLQMNSLKPEDTAVYYCAADYTLQRQTSFLDSEFYWGQGTQVTVSS,high polyreactivity
13,QVQLVESGGGLVQAGGSLRLSCAASGFTLVKYVMVWYMQAPGKEREFVATIRRRGGNTYYADSVKGRFTISRDNAKNTVYLQMNSLKPEDTAVYYCAAKKRSDLRTGDMEYWGQGTQVTVSS,high polyreactivity
14,QVQLVESGGGLVQAGGSLRLSCAASGFTLVLNAMGWYRQAPGKERELVAAIRRSAGSTYYADSVKGRFTISRDNAKNTVYLQMNSLKPEDTAVYYCAAGFLWAKYAYGHWGQGTQVTVSS,low polyreactivity
15,QVQLVESGGGLVQAGGSLRLSCAASGFTLVLNAMGWYRQAPGKEREVVAAIRRSAGSTYYADSVKGRFTISRDNAKNTVYLQMNSLKPEDTAVYYCAAGFLWAKYAYGHWGQGTQVTVSS,low polyreactivity
16,QVQLVESGGGLVQAGGSLRLSCAASGFTLWLNAMGWYRRAPGKERELVAAITTSDDGTYYADSVKGRFTISRDNAKNTVYLQMNSLKPEDTAVYYCAADYYSVLYDYWGQGTQVTVSS,low polyreactivity
17,QVQLVESGGGLVQAGGSLRLSCAASGFTLWYNTMGWYRQAPGKERELVASITIGDSTSYADSVKGRFTISRDNAKNTVYLQMNSLKPEDTAVYYCNAEIALNSYDTYHRAADGYNYWGQGTQVTVSS,low polyreactivity
18,QVQLVESGGGLVQAGGSLRLSCAASGFTLYDNAMGWYRQAPWKERELVAAISWSGGSTYYADSVKGRFTISRDNAKNTVYLQMNRLKPEDTAVYYCATDFVSYAEGRMEYWGLGTQVTVSS,low polyreactivity
19,QVQLVESGGGLVQAGGSLRLSCAASGFTLYRNAMGWYRQAPGKERELVAAITSSGGGTYYADSVKGRFTISRDNAKNTVYLQMNSLKPEDTAVYYCAARSTSDREGNYWGQGTQVTVSS,low polyreactivity
20,QVQLVESGGGLVQAGGSLRLSCAASGFTLYRNAMGWYRQAPGKERELVAAITSSGGRTYYADSVKGRFTISRDNAKYTVYLQMNSLKPEVTAVYSCAADFGLGYYYWGQGTQVTVSS,high polyreactivity
21,QVQLVESGGGLVQAGGSLRLSCAASGFTLYRYAMAWYRQAPGKERELVAAISWSGGSTYYADSVKGRFTISRDNAKNTVYLQMNSLKPEDTAVYYCAATGYVTRSKRYDYWGQGTQVTVSS,high polyreactivity
22,QVQLVESGGGLVQAGGSLRLSCAASGFTLYYSAMGWYRQAPGKERELVAAISYSGGSTYYADSVKGRFTISRDYAKNTVYLHMYSLKPEDTAVSYCAVQFSYGFTGGPIYDYWGQGTQVTVSS,low polyreactivity

row,Sequence,polyreactivity (PSR sort gate)
1,QVQLVESGGGLVQAGGSLRLSCAASGFTLYYYMGWYRQAPGKERELVARIRATGGSTYYADSVKGRFTISRDNAKNTVDLQMNSLKPEDTAVYYCAAKGVPRRYRPDMYYWGQGTQVTVSS,high polyreactivity
2,QVQLVESGGGLVQAGGSLRLSCAASGFTNAMGWYRQAPGKERELVAAISYSGDSTNYADSVKGRFTISRDNAKNTVYLQINSVKPEDTAVYYCNASSPYDYDWGQGTHVTVSS,low polyreactivity
3,QVQLVESGGGLVQAGGSLRLSCAASGFTNLNSMGRYRQAPGKERELVADISASGGTTYYADSVKGRFTISLDNAKNTVYLQMNSLKPEDTAVYYCAARRYYPRWYYWIRFDYWGQGTQVTVSS,high polyreactivity
4,QVQLVESGGGLVQAGGSLRLSCAASGFTNSMGWYRQAPGKERELVAAISYSGDSTNYADSVKGRFTISRDNAKNTVYLQMNSLKPQDTAVYYCNASSPYDYDWGQGTQVTVSS,low polyreactivity
5,QVQLVESGGGLVQAGGSLRLSCAASGFTPGNVMGWYRQAPGKERELVAAISWSGDSTYYADSVKGRFTISRDNAKNTVYLQMNSLKPEDTAVYYCAADGVPGRAVDYEYWGQGTQVTVSS,high polyreactivity
6,QVQLVESGGGLVQAGGSLRLSCAASGFTSGNYAMGWYRQAPGKEREFVAAITWGDGSTFYADSVKGRFTISRDNAKNTVYLQMNSLKPEDTAVYYCAADYSRTYRAYDYWGQGTQVTVSS,low polyreactivity
7,QVQLVESGGGLVQAGGSLRLSCAASGFTSGYNLMGWYRQAPGKERELVAAISWRGTSTYYADSVKGRFTISRDNAKNTVYLQMNSLKPEDTAVYYCAARQRWYWRGYDYWGQGTQVTVSS,high polyreactivity
8,QVQLVESGGGLVQAGGSLRLSCAASGFTSGYYAMGWYRQAPGKERELVAAISFSGDDTYYADSVKGRFTISRDNAKNTVYLQMNCLKPEVTAVYYCAAEYDLYFLDQGYWYVAFDYWGQGTQVTVSS,high polyreactivity
9,QVQLVESGGGLVQAGGSLRLSCAASGFTSGYYAMGWYRQAPGKESELVAAIDWSDGGTYYADSVKGRFTISRDNAKNTVYLQMNSLKPEDTAVYYCATVRYVQITRDDYWGQGTQVTVSS,low polyreactivity
10,QVQLVESGGGLVQAGGSLRLSCAASGFTSKTNAMGWYRQAPGKERELVAGITRTGGSTYYADSVKGRFTISRDNAKNTVYLQMNSLKPEDTAVYYCAREYGDGYEYWGQGTQVTVSS,low polyreactivity
11,QVQLVESGGGLVQAGGSLRLSCAASGFTSRKNAMGWYRQAPGKERELVAAITQSSGRTYYADSVKGRFTISRDNAKNTVYLQMNSLKPEDTAVYYCAARRGGEDDYWGQGTQGTVSS,low polyreactivity
12,QVQLVESGGGLVQAGGSLRLSCAASGFTSSAYAMGWYRQEPGKESELVAVISRSGGRTYYADSVKGRFTISRDNAKNTVYLQMNSLKPEDTADYYCAAEYGVYNIHFPGYDYWGQGTQVTVSS,high polyreactivity
13,QVQLVESGGGLVQAGGSLRLSCAASGFTSWQYAMGWYRQAPGKERELVAAISVSGASTYYADSVKGRFTISRDNAKNTVYLQMNSLKPEDTAVYYCAAAYVRYPTTRYYYWGQGTQVTVSS,high polyreactivity
14,QVQLVESGGGLVQAGGSLRLSCAASGFTSYRYAMGWYRQAPGKERELVAAISSSGRTDYADSVKGRFTISRDNAKNSVYLQMNSLKPEDTAVYYCAARTYSYVGRYKFDYWGQGTQVTVSS,high polyreactivity
15,QVQLVESGGGLVQAGGSLRLSCAASGFTVEKNAMGWYRPAPGNERELVAAITKSGGSTYYADSVKGRFTISRDNAKNTVYLQMNSLKPEDTAVYFCNAPPWSRYYYDLLRHDYWGQGTQVTVSS,low polyreactivity
16,QVQLVESGGGLVQAGGSLRLSCAASGFTVYGYTMGWYREAPGKERELVAAITSGDSTYYADSVKGRVTISRDIAQNTDYLQMHTLKPEETAVYYCATDWDVEYAWTEYYYWGQGTQVTVSS,high polyreactivity
17,QVQLVESGGGLVQAGGSLRLSCAASGFTWSYAMGWYRQAPGKERELVATISDGVSTNYADSVKGRFTISRDNAKNTVYLQMNSLKPEDTAVYYCAARYTSWGMGYWGQGTQVTVSS,low polyreactivity
18,QVQLVESGGGLVQAGGSLRLSCAASGFTYIFYAMGWYRQAPGKERELVAAITWDGDRTYYADSVKGRFTISRDNAKNTVYLQMNSLKPEDTAVYYCNADEGGNYREDYWGQGTQVTVSS,low polyreactivity
19,QVQLVESGGGLVQAGGSLRLSCAASGFTYRSYTMGWYRQAPGKERELVAAITSRGTSTYYADSVKGRFTISRDNAKNTVYLQMNSLKPEDTALYYCNAARPGKNYDSWGQGTQVTVSS,high polyreactivity
20,QVQLVESGGGLVQAGGSLRLSCAASGFTYSFYTMGWSRQAPGKERELVAAISRNGGSTYYADSVKGRFTISRDNAKNTVYLQMNSLKPEDTAVYYCAARARGGDWGSGDYWGQGTQVTVSS,high polyreactivity
21,QVQLVESGGGLVQAGGSLRLSCAASGFTYTYAMGWYIQAPGKERELVAAISKSGGRTYYADSVKGRFTISRDNAKNTVYLQMNSLKPEDTAVYYCAADYSSTYDYWGQGTQVTVSS,high polyreactivity
